From the supplement of paper PMC10724198
± gives the standard deviation of the averaged measurements.

Legend:
Saccharomyces cerevisiae [1] = test: protein stability index of tFT-peptide fusion (C-terminal peptide) (PSI (0-1 scale)); higher = more stable (slower turnover)
Experimental: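 MPS profiling in S. cerevisiae of the tFT-X12 degron library: putative degron peptides plus stable controls, 12 aa, fused to the C-terminus of a sfGFP-mCherry timer. Cells are FACS-sorted into 8 mCherry/sfGFP bins and deep-sequenced. PSI runs from 0 (unstable) to 1 (stable). Backgrounds are wild type, das1Δ and doa10Δ at 30 °C, and wild type, das1Δ, cdc34-1 and cdc53-1 at 37 °C; 2-3 technical replicates each.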

Saccharomyces cerevisiae [2] = test: as above; settings: genetic background: wild type; temperature: 30 C
[3] = genetic background: cdc34-1, temperature: 37 C
[4] = genetic background: cdc53-1, temperature: 37 C
[5] = genetic background: das1 deletion, temperature: 30 C
[6] = genetic background: das1 deletion, temperature: 37 C
[7] = genetic background: doa10 deletion, temperature: 30 C
[8] = genetic background: wild type, temperature: 30 C
[9] = genetic background: wild type, temperature: 37 C
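Also: PSI is a weighted mean of sequencing reads over stability bins, variants kept only with over 10 reads, mCherry proximal and sfGFP distal, peptide attached via GGGS linker.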

Row | Sequence | protein stability index (Saccharomyces cerevisiae [1]; [3]) | protein stability index (Saccharomyces cerevisiae [1]; [4]) | protein stability index (Saccharomyces cerevisiae [1]; [5]) | protein stability index (Saccharomyces cerevisiae [1]; [6]) | protein stability index (Saccharomyces cerevisiae [1]; [7]) | protein stability index (Saccharomyces cerevisiae [1]; [8]) | protein stability index (Saccharomyces cerevisiae [1]; [9]) | protein stability index (Saccharomyces cerevisiae [2])
1 | LFFFSFSFLFFL | 0.291 ± 0.07 | 0.29 ± 0.0037 | 0.302 ± 0.015 | 0.411 ± 0.00085 | 0.317 ± 0.024 | 0.245 ± 0.014 | 0.3202 ± 0.0027 | 0.278 ± 0.035
2 | LFFFVFFVLFSV | 0.2271 ± 0.00037 | 0.204 ± 0.0057 | 0.218 ± 0.013 | 0.3319 ± 0.0017 | 0.304 ± 0.013 | 0.211 ± 0.023 | 0.303 ± 0.016 | 0.259 ± 0.075
3 | LFFRLLCAFLFL | 0.532 ± 0.041 | 0.452 ± 0.012 | 0.499 ± 0.047 | 0.584 ± 0.017 | 0.578 ± 0.04 | 0.501 ± 0.012 | 0.5353 ± 0.0031 | 0.529 ± 0.046
4 | LFFVFCLFFIYF | 0.167 ± 0.031 | 0.102 ± 0.0085 | 0.235 ± 0.024 | 0.301 ± 0.0074 | 0.322 ± 0.0061 | 0.252 ± 0.017 | 0.264 ± 0.011 | 0.247 ± 0.004
5 | LFHSIPRLLLLK | 0.0746 ± 0.013 | 0.0485 ± 0.0081 | 0.23 ± 0.087 | 0.27 ± 0.04 | 0.627 ± 0.0064 | 0.241 ± 0.033 | 0.218 ± 0.041 | 0.367 ± 0.053
6 | LFKFCLGIPLFL | 0.51 ± 0.026 | 0.522 ± 0.029 | 0.412 ± 0.037 | 0.576 ± 0.006 | 0.4179 ± 0.004 | 0.402 ± 0.029 | 0.559 ± 0.014 | 0.479 ± 0.038
7 | LFLSAFFYLLVW | 0.199 ± 0.0028 | 0.2233 ± 0.0014 | 0.245 ± 0.029 | 0.341 ± 0.0047 | 0.277 ± 0.0047 | 0.238 ± 0.014 | 0.3077 ± 0.002 | 0.284 ± 0.039
8 | LFLVLFCVVGFV | 0.234 ± 0.036 | 0.311 ± 0.031 | 0.226 ± 0.027 | 0.377 ± 0.0076 | 0.222 ± 0.0075 | 0.219 ± 0.02 | 0.337 ± 0.011 | 0.282 ± 0.0047
9 | LFSFFVFFFLLD | 0.358 ± 0.086 | 0.446 ± 0.0062 | 0.364 ± 0.044 | 0.522 ± 0.031 | 0.375 ± 0.005 | 0.37 ± 0.031 | 0.476 ± 0.02 | 0.435 ± 0.034
10 | LFTRWSILFKLF | 0.335 ± 0.075 | 0.357 ± 0.058 | 0.559 ± 0.032 | 0.694 ± 0.052 | 0.0889 ± 0.025 | 0.0908 ± 0.012 | 0.136 ± 0.015 | 0.132 ± 0.0026
11 | LGDPPCRMIVVR | 0.532 ± 0.026 | 0.58581 ± 4.2e-05 | 0.353 ± 0.038 | 0.5869 ± 0.0044 | 0.339 ± 0.011 | 0.376 ± 0.026 | 0.558 ± 0.0075 | 0.466 ± 0.033
12 | LGGVEDRWRTAT | 0.653 ± 0.05 | 0.704 ± 0.0094 | 0.693 ± 0.032 | 0.7227 ± 0.0051 | 0.261 ± 0.016 | 0.296 ± 0.025 | 0.534 ± 0.008 | 0.365 ± 0.0037
13 | LGRLDYKRMKRA | 0.7464 ± 0.0014 | 0.748 ± 0.024 | 0.641 ± 0.033 | 0.7434 ± 0.0068 | 0.477 ± 0.017 | 0.51 ± 0.021 | 0.618 ± 0.046 | 0.533 ± 0.076
14 | LGSYIFVVVIYF | 0.152 ± 0.011 | 0.228 ± 0.0032 | 0.168 ± 0.032 | 0.291 ± 0.0044 | 0.141 ± 0.0079 | 0.143 ± 0.033 | 0.253 ± 0.0056 | 0.283 ± 0.15
15 | LGSYVWVFVYFW | 0.159 ± 0.022 | 0.258 ± 0.0054 | 0.155 ± 0.039 | 0.323 ± 0.01 | 0.148 ± 0.0054 | 0.151 ± 0.028 | 0.267 ± 0.025 | 0.187 ± 0.051
16 | LHIHGAGIVCAG | 0.549 ± 0.026 | 0.584 ± 0.029 | 0.368 ± 0.032 | 0.5788 ± 0.001 | 0.318 ± 0.0044 | 0.374 ± 0.029 | 0.5491 ± 0.0022 | 0.467 ± 0.028
17 | LICRFLFFVCVG | 0.412 ± 0.024 | 0.451 ± 0.0053 | 0.377 ± 0.023 | 0.507 ± 0.0068 | 0.277 ± 0.011 | 0.278 ± 0.02 | 0.441 ± 0.03 | 0.394 ± 0.04
18 | LILLTFTLRVPV | 0.192 ± 0.0027 | 0.381 ± 0.046 | 0.233 ± 0.02 | 0.4028 ± 0.0024 | 0.2056 ± 0.001 | 0.227 ± 0.026 | 0.362 ± 0.018 | 0.361 ± 0.034
19 | LLCLCSLPVFAS | 0.317 ± 0.014 | 0.319 ± 0.029 | 0.26 ± 0.046 | 0.4118 ± 0.0028 | 0.223 ± 0.009 | 0.27 ± 0.018 | 0.368 ± 0.0076 | 0.356 ± 0.016
20 | LLFLLSPFNFAV | 0.651 ± 0.035 | 0.726 ± 0.0084 | 0.63 ± 0.022 | 0.737 ± 0.0093 | 0.2535 ± 0.0025 | 0.303 ± 0.017 | 0.524 ± 0.03 | 0.328 ± 0.07
21 | LLFTFSLSFFFR | 0.405 ± 0.036 | 0.467 ± 0.0087 | 0.445 ± 0.048 | 0.438 ± 0.0076 | 0.458 ± 0.018 | 0.42 ± 0.022 | 0.45 ± 0.022 | 0.445 ± 0.014
22 | LLLHFMFSIFWF | 0.3811 ± 0.00039 | 0.375 ± 0.032 | 0.327 ± 0.034 | 0.4583 ± 0.0021 | 0.378 ± 0.011 | 0.324 ± 0.016 | 0.42 ± 0.011 | 0.378 ± 0.023
23 | LLMWVLFDCHYS | 0.39 ± 0.017 | 0.542 ± 0.034 | 0.318 ± 0.035 | 0.552 ± 0.011 | 0.306 ± 0.01 | 0.322 ± 0.023 | 0.535 ± 0.013 | 0.396 ± 0.012
24 | LLPTSVFLPSLF | 0.6907 ± 0.0038 | 0.7726 ± 0.0059 | 0.663 ± 0.012 | 0.768 ± 0.014 | 0.282 ± 0.0082 | 0.331 ± 0.021 | 0.578 ± 0.018 | 0.489 ± 0.0069
25 | LLRIFLPLLYLL | 0.203 ± 0.062 | 0.199 ± 0.011 | 0.329 ± 0.037 | 0.387 ± 0.016 | 0.218 ± 0.0076 | 0.131 ± 0.021 | 0.2 ± 0.00044 | 0.194 ± 0.019
26 | LLSFYFVLAYMV | 0.357 ± 0.034 | 0.393 ± 0.026 | 0.32 ± 0.035 | 0.4765 ± 0.00078 | 0.197 ± 0.024 | 0.179 ± 0.02 | 0.3 ± 0.0065 | 0.28 ± 0.056
27 | LLSYMVSLVVYL | 0.127 ± 0.04 | 0.231 ± 0.03 | 0.175 ± 0.032 | 0.338 ± 0.024 | 0.16 ± 0.028 | 0.166 ± 0.031 | 0.291 ± 0.004 | 0.295 ± 0.0062
28 | LLYYQVFKTRRL | 0.674 ± 0.021 | 0.686 ± 0.037 | 0.63 ± 0.026 | 0.696 ± 0.034 | 0.3565 ± 0.0012 | 0.384 ± 0.022 | 0.5958 ± 0.0036 | 0.406 ± 0.25
29 | LNQRGKRKYLIM | 0.711 ± 0.058 | 0.751 ± 0.054 | 0.656 ± 0.038 | 0.723 ± 0.016 | 0.372 ± 0.012 | 0.412 ± 0.024 | 0.561 ± 0.034 | 0.452 ± 0.015
30 | LNTVALIRIVVS | 0.0601 ± 0.033 | 0.132 ± 0.015 | 0.18 ± 0.021 | 0.234 ± 0.0055 | 0.125 ± 0.015 | 0.137 ± 0.036 | 0.19 ± 0.008 | 0.236 ± 0.006
